# Laboratory results reported in article PMC4136698.
# Molecular target: SNAP tag–polyproline peptide fusion (…)
# Experiment: pull-down
substance,measurement,value
Src^Y527F (from UniProt P00523 84-533) (enzyme),percent of kinase retained by the immobilized SH3 domain ligand,74%
same,percent of total kinase retained on beads,11%
